40 sequences from the nanobody polyreactivity screen of Harvey et al. (2022) can be followed below.

The nature of this data set: yeast display, Sf9 membrane polyspecificity reagent, FACS + sequencing; frameworks hold sequencing errors. The essentials:
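Sorting gates, low and high (top ~1%), were placed on anti-HA fluorescence to track expression and on streptavidin fluorescence to track reagent binding. A clone's polyreactivity label is taken from the gate it came out of. The reagent was 10% biotinylated, detergent-solubilized Sf9 membrane, applied for 1 hour at 4 °C to galactose-induced yeast display cells.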
For the sequence “QVQLVESGGGLVQAGGSLRLSCAASGSTFTRYAMGWYRQAPGKEREFVAAINWSGTSTYYADSVKGRFTISRDTAKNTVYLQMNSLKPEDTAVYYCNAYTVRSYRFDYWGQGTQVTVSS”, the “polyreactivity (PSR sort gate)” value was “high polyreactivity”.

As to “QVQLVESGGGLVQAGGSLRLSCAASGSTFTSNVMGWYRQAPGKERELVAAISQSGGRTYYADSVKGRFTISRDNAKNTVYLQMNSLKPEDTAVYYCAASYVHYHMDYWGQGTQVTVSS”, the “polyreactivity (PSR sort gate)” value was “high polyreactivity”.

With “QVQLVESGGGLVQAGGSLRLSCAASGSTFTSNVMGWYRQAPGKERELVAAISTNGGRTYYADSVKGRFTISRDNAKNTVYLQMNSLKPEDTAVYYCAASLPRPGIGGRDYWGQGTQVTVSS”, the “polyreactivity (PSR sort gate)” value is “low polyreactivity”.

In the case of “QVQLVESGGGLVQAGGSLRLSCAASGSTFTSYVMGWYRQAPGKEREFVAAITSSGGDTYYADSVKGRFTISRDNAKNTVYVQMNSLKPEDTEVYYCATRSYYRSSYYRNRYPYDYWGQGTLVTVSS”, the “polyreactivity (PSR sort gate)” value is listed as “low polyreactivity”.

For the sequence “QVQLVESGGGLVQAGGSLRLSCAASGSTFTTNAMGWSRQAPGNERELVATISGGGSTYYADSVKGRFTISRDNAKNTVYLQMNSLKPEDTAVYDCATDVQVPGIGRSVYAYEYWGQGTQVTVSS”, the “polyreactivity (PSR sort gate)” value was “low polyreactivity”.

As to “QVQLVESGGGLVQAGGSLRLSCAASGSTFTTNAMGWYRQAPGKERELVASITWSGGGTNYADSVKGRFTISRDNAKNSVFLQMNSLKPEDTAVYSCADDYDDSHLRSDYWGQGTQVTVSS”, the “polyreactivity (PSR sort gate)” value is recorded as “low polyreactivity”.

With “QVQLVESGGGLVQAGGSLRLSCAASGSTFTTYAMGWYRQAPGKERELVAAISNNGGRTFYADSVKGRFTISRDNAKNTVYLQMNSLKPEDTAVYYCAAEYGLYAPGYYYWGQGTQVTVSS”, the “polyreactivity (PSR sort gate)” value is recorded as “low polyreactivity”.

For “QVQLVESGGGLVQAGGSLRLSCAASGSTFTTYAMGWYRQAPGKERELVAAISYGGGSTYYADSVKGRFTISRDNAKNTVYLQMNSLKPEDTAVYFCAAVAWASDGYDSWGQGTQVTVSS”, the “polyreactivity (PSR sort gate)” value is “low polyreactivity”.

For “QVQLVESGGGLVQAGGSLRLSCAASGSTFTTYAMGWYRQATGKERELVASITWRGGSTYADSVKGRFTISRDNAKNTVYLEMNSLKPEDTAVYYCAAATRASAQFPRQRYYYWGQGTQVTVSS”, the “polyreactivity (PSR sort gate)” value is “high polyreactivity”.

For “QVQLVESGGGLVQAGGSLRLSCAASGSTFTTYDMGWYRQAPGKERELVAGITGSGTSTFYADSVKGRFTISRDNAKNTVYLQMKSLKPEDTAVYYCATDWYTPEEYVTGAIEEYYWGQGTLVTVSS”, the “polyreactivity (PSR sort gate)” value was “low polyreactivity”.

As to “QVQLVESGGGLVQAGGSLRLSCAASGSTFTVYAMGWYRQAPGKERELVAAITVSTDSTYYADSVKGRFTISRDNAKNTVYLQMNSLKPEDTAVYYCAADSARSGYGRYDSWGQGTQVTVSS”, the “polyreactivity (PSR sort gate)” value is “low polyreactivity”.

In the case of “QVQLVESGGGLVQAGGSLRLSCAASGSTFTWNGMGWYRQAPGKERELVATISYGGGRTYYADSVKGRFTISRDNAKNTVYLQMNSLKPEDTAVYYCAADFTRYTQVHALRLSEYWGQGTQVTVSS”, the “polyreactivity (PSR sort gate)” value was “low polyreactivity”.

With “QVQLVESGGGLVQAGGSLRLSCAASGSTFTWYAMGWYRQAPGKERELVAAIRWSGGNTYYADSVKGRFTISRDTAKNTVYLHMNSLKPEDTGVYYCAAVSRTYSLQMYYWGQGTQVTVSS”, the “polyreactivity (PSR sort gate)” value is “high polyreactivity”.

As to “QVQLVESGGGLVQAGGSLRLSCAASGSTFTYNAMGWYRHAPGKERELVASISSGTTTYYADSVKGRFTISRDNAKNTVYLQLNSLKPEDTAVYFCAVDSWSRVQGWLAHNYDYWGQGTQVTVSS”, the “polyreactivity (PSR sort gate)” value is “low polyreactivity”.

As for “QVQLVESGGGLVQAGGSLRLSCAASGSTFTYNAMGWYRQAPGKVRELVASISSGTTTYYADSVKGRFTISRDNAKNTVYLQMNSLTPEDTAVYYCAVDSWSRVQGWLAHNYDYWGQGTQVTVSS”, the “polyreactivity (PSR sort gate)” value is listed as “low polyreactivity”.

“QVQLVESGGGLVQAGGSLRLSCAASGSTFTYNDMGWYRQAPGKERELVARITFSSGRTYYADSVKGRFTISRDNAKNTVYLQMNSLKPEDTAVYYCARQWYWRPGYYIGQGYEYWGQGTQVTVSS”: the “polyreactivity (PSR sort gate)” value is listed as “low polyreactivity”.

Consider “QVQLVESGGGLVQAGGSLRLSCAASGSTFTYYAMGWYRQAPGKERELVAAIDFSGTSTYYADSVKGRFTISRDNAKNTVYLQMNRLKPEDTAVYYCAASQSWYWGGAHDNGEFGYWGQGTQVTVSS”, for which the “polyreactivity (PSR sort gate)” value was “low polyreactivity”.

Take “QVQLVESGGGLVQAGGSLRLSCAASGSTFTYYAMGWYRQAPGKERELVAAISRGGRTNYADSVKGRFTISRDNAKNTVYLQMNSLKPEDTAVYFCAAVVFRTGIWFDYWGQGTQVTVSS”: the “polyreactivity (PSR sort gate)” value is reported as “high polyreactivity”.

Regarding “QVQLVESGGGLVQAGGSLRLSCAASGSTFTYYAMGWYRQAPGKERELVAAITSGGSTNYADSVKGRFTISRDNAKNTVYLQMNSLKPEDTAVYYCAAEYVRQNYEMDYWGQGTQVTVSS”, the “polyreactivity (PSR sort gate)” value is “low polyreactivity”.

For the sequence “QVQLVESGGGLVQAGGSLRLSCAASGSTFTYYTMGWYRQAPGKERELVAAITSGTSTNYADSVKGRFTISRDNAKNTVYLQMNSLKPEDTAVYYEYDYWGQGTQVTVSS”, the “polyreactivity (PSR sort gate)” value is “low polyreactivity”.

In the case of “QVQLVESGGGLVQAGGSLRLSCAASGSTFTYYTMGWYRQAPGKERELVAAITSGTSTNYADSVKGRFTISRDNAKNTVYLQMNSLTPEDTAVYYEYDYWGQGTQVTVSS”, the “polyreactivity (PSR sort gate)” value is “low polyreactivity”.

In the case of “QVQLVESGGGLVQAGGSLRLSCAASGSTFVAYAMGWYRHAPGKERELVADISTSDGSTRYADSVKGRFTISSDNAKNTVYLQMISLKPEDTAVYYCGAGSEYYSYGGVRFSFYYWGQGTQVTVSS”, the “polyreactivity (PSR sort gate)” value is recorded as “low polyreactivity”.

As to “QVQLVESGGGLVQAGGSLRLSCAASGSTFVAYAMGWYRQAPGKERELVAAISSVGRTNYADSVKGRFTISRDNAKNTVYLQMNSLIPEDTAVYYCNVEPGGITRQEYDYWGQGTQVTVSS”, the “polyreactivity (PSR sort gate)” value is “high polyreactivity”.

Turning to “QVQLVESGGGLVQAGGSLRLSCAASGSTFVCYGMGWYRQAPGKEREFVAAISTSGGRTYYADSVKGRFSISRDNAKNTVYLQMNSLKQEDTAVYYCATRPYFTYRWYDYWGQGTKVTVSS”, the “polyreactivity (PSR sort gate)” value is “high polyreactivity”.

Turning to “QVQLVESGGGLVQAGGSLRLSCAASGSTFVDYAMGWDRQAPGKERELVAGINGSGGSTYYADSVKGRFTISRDNAKNTVYLQMNSLKPEDTAVYYCAKDGSNRLALPAWDYNYWGQGTQVTVSS”, the “polyreactivity (PSR sort gate)” value is reported as “low polyreactivity”.

Regarding “QVQLVESGGGLVQAGGSLRLSCAASGSTFVDYAMGWYRQAPGKERELVAAINERGGSTYYADSVKGRFTISRDNAKNTVYLQMNSLKPEDTAVYYCAKQLWVGVKYDYWGQGTQVTVSS”, the “polyreactivity (PSR sort gate)” value was “low polyreactivity”.

Consider “QVQLVESGGGLVQAGGSLRLSCAASGSTFVDYDMGWYRQAPGKERELVAAITYSGARTYYADSVKGRFTISRDNAKNTVYLKMNSLKPEDTAVYYCNADQRSASDQLEFDYWGQGTQVTVSS”, for which the “polyreactivity (PSR sort gate)” value is recorded as “low polyreactivity”.

Regarding “QVQLVESGGGLVQAGGSLRLSCAASGSTFVDYYMGWYRQATGKERELVAAITYSGARTYYADSVKGRFTISRDNAKNTVYLQMNSLKPEDTAVYYCNADQSTASDQLEFDYWGQGTQVTVSS”, the “polyreactivity (PSR sort gate)” value is listed as “low polyreactivity”.

Regarding “QVQLVESGGGLVQAGGSLRLSCAASGSTFVFNAMGWYRQAPGKERELVAAISIDGSTNYADSVKGRFTISRDNANNSVYLQMNSLKPEDTAVYYCNAKRYGFFYWQGDYWGQGTQVTVSS”, the “polyreactivity (PSR sort gate)” value was “low polyreactivity”.

As for “QVQLVESGGGLVQAGGSLRLSCAASGSTFVFNAMGWYRQAPGKERELVARITTGGSTHYADSVKGRFTISRDNAKNTVYLQMNSLKPEDTAVYYCNTGPYTFDSPEYYYWGQGTQVTVSS”, the “polyreactivity (PSR sort gate)” value is “low polyreactivity”.

“QVQLVESGGGLVQAGGSLRLSCAASGSTFVGYAMGCYRQAPGKERELVATISWIGVRTYYADSVKGRFTISRDNAKNTVYLQMNSLKPEDTAVYYCANRKGYSARSFWRLYEPENDYWGQGTQVNVSS”: the “polyreactivity (PSR sort gate)” value is recorded as “high polyreactivity”.

In the case of “QVQLVESGGGLVQAGGSLRLSCAASGSTFVGYAMGWYRQAPGKERELVAAISWRGTRTYYADSVKGRFTISRDNAKNTVYLQMNSLKPEDTAVYYCAAVARQGKGYDYWGQGTQVTVSS”, the “polyreactivity (PSR sort gate)” value was “high polyreactivity”.

As to “QVQLVESGGGLVQAGGSLRLSCAASGSTFVGYAMGWYRQAPGKERELVADIDSIGGSTYYADSVKGRFTISRDNAKNTVYLQMNSLKPEDTAVYYCAARRFDTALVLYDYCGQGTQVTVSS”, the “polyreactivity (PSR sort gate)” value is “low polyreactivity”.

On to “QVQLVESGGGLVQAGGSLRLSCAASGSTFVGYAMGWYRQAPGKERELVADIDSIGGSTYYADSVKGRFTISRDNAKNTVYVQMNSLKPEDTAVYYCAARRFDTALVLYDYWGQGTQVTVSS”, for which the “polyreactivity (PSR sort gate)” value is listed as “low polyreactivity”.

In the case of “QVQLVESGGGLVQAGGSLRLSCAASGSTFVGYAMGWYRQAPGKERELVADIDSIGGSTYYADSVKRRFTISRDNAKNTVYLQMNSLKPEDTAVYDCAAYQHPGLRTSYEYWGQGTQVTVSS”, the “polyreactivity (PSR sort gate)” value is “low polyreactivity”.

“QVQLVESGGGLVQAGGSLRLSCAASGSTFVGYAMGWYRQAPGKERELVADITSGGGITYYADSVKGRFTISRDNAKNTVYLQMNSLKPEDTAVYYCAVQYYNVLYYQYDYWGQGTQVTVSS”: the “polyreactivity (PSR sort gate)” value is reported as “low polyreactivity”.

On to “QVQLVESGGGLVQAGGSLRLSCAASGSTFVGYAMGWYRQAPGQERELVAGITINGGSTYYADSVKGRFTISRDNAKNTVYLQMNSLKPEDTAVYYCAATGNENYPDPLQSMDYWGQGTQVTVSS”, for which the “polyreactivity (PSR sort gate)” value is on record as “low polyreactivity”.

On to “QVQLVESGGGLVQAGGSLRLSCAASGSTFVGYAMGWYRQAPGTERDLVAAISSSGSTNYADSVKGRFTISRDNAKNTVYLQMNSLKPEDTAVYYCAALYSYFWLIIDYGYWGQGTQVTVSS”, for which the “polyreactivity (PSR sort gate)” value is recorded as “low polyreactivity”.

Take “QVQLVESGGGLVQAGGSLRLSCAASGSTFVINAMGWYRQAPGKERELVAAISYDGGGTYYADSVKGRFTISRDNAKNTVYLQMNSLKPEDTAVYYCAAENFYPYTYYASDYWGQGTQVTVSS”: the “polyreactivity (PSR sort gate)” value was “high polyreactivity”.

With “QVQLVESGGGLVQAGGSLRLSCAASGSTFVKNSMGLYRQAPGKERELVAVISWPGSSTYYADSVKGRFTISRDNAKNTDYLQMISLKPEDTAVYYCNAPKIRPGSHTRHYYWGQGTQVTVSS”, the “polyreactivity (PSR sort gate)” value was “low polyreactivity”.
